Measured values taken from patent US20200277376A1 (SUZHOU STAINWEI BIOTECH, published 2020).
Blank lines part the entries; values can stand above or below the molecule they belong to.

Legend:
[1] = biological target: recombination human PD-1 extracellular protein (Sino Biological Inc.) (human) (UniProt Q15116); test: competitive ELISA, plate coated with human PD-1 protein; competitor biotin-hAb21
[2] = biological target: T1, human PD-1 on cells (CHO cells stably expressing human PD-1) (human, UniProt Q15116 25-288); test: flow cytometry on CHO/PD-1 cells
T1 construct: whole, on cells; also called CHO/PD-1; CHO-PD-1
T1 sequence (Q15116 25-288): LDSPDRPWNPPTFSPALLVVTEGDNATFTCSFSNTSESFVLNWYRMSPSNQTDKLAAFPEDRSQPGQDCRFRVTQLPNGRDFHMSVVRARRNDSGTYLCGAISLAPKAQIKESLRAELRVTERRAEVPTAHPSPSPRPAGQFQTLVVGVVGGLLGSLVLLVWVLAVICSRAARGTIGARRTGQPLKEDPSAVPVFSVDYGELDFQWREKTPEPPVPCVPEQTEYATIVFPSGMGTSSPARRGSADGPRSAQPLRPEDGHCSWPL

Chain of recombination human PD-1 extracellular protein (Sino Biological Inc.) (human) (Q15116 25-170): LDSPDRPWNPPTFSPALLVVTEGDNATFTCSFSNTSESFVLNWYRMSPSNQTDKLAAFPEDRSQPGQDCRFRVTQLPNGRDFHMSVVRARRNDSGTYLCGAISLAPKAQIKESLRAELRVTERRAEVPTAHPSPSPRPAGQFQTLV

- antagonizing/inhibiting ratio [1]: 70%
Molecule: MK3475+Nivo (Nivolumab and MK3475 added together)

- binding result [2]: binds
B1: human PDL2-Fc fusion protein (Fc fusion, UniProt Q9BQ51 20-219, looked up, not shown: a dimerising Fc or GST)
chain: LFTVTVPKELYIIEHGSNVTLECNFDTGSHVNLGAITASLQKVENDTSPHRERATLLEEQLPLGKASFHIPQVQVRDEGQYQCIIIYGVAWDYKYLTLKVKASYRKINTHILKVPETDEVELTCQATGYPLAEVSWPNVSVPANTSHSRTPEGLYQVTSVLRLKPPPGRNFSCVFWNTHVRELTLASIDLQSQMEPRTHP
notes: also called biotin-PDL2-Fc; Biotin-PDL2Fc
